Test results as given in patent publication US20110239311A1 (MEDIZINISCHE UNIVERSITAT INNSBRUCK, published 2011).

Assays:
[1] = target: T1, endogenous PKCtheta from Jurkat T cell lysate (human, UniProt Q04759 1-706); assay: GST pull down from Jurkat T cell lysate, immunoblot
T1 construct: also called PKCθ
Method: (§1) GST pull down assay: 1×10⁷ Jurkat T cells were lysed in 1 ml lysis buffer (25 mM MES pH 6.5, 5 mM NaF, 1 mM Na₃VO₄, 2 mM EDTA, 150 mM NaCl, 0.5% TritonX-100, 50 μg/ml aprotinin and leupeptin). Lysates were precleared for 30 min at 4° C. Thereafter incubation with purified recombinant GST-NR2F6 fusion proteins for 3 h at 4° C., 5× washing in lysis buffer, SDS-PAGE under reducing conditions on Bis/Tris-buffered gels (Novex, San Diego, Calif.) was performed. Proteins were transferred onto a polyvinyl-difluoridon (PVDF) membrane (Millipore, Bedford, Mass.) by semi-dry blotting (90 mA, 80 min, 4° C.). […] Peroxidase-conjugated antibodies (Pierce, Rockford, Ill.) served as secondary reagent (1:5,000). For antigen detection enhanced chemiluminescence was used (Super Signal, Pierce, Rockford, Ill.).

[2] = target: T2, endogenous PKCalpha from Jurkat T cell lysate (human, UniProt P17252 2-672); assay: as above
T2 construct: also called PKCα
Method: as §1

T1 sequence (Q04759 whole entry): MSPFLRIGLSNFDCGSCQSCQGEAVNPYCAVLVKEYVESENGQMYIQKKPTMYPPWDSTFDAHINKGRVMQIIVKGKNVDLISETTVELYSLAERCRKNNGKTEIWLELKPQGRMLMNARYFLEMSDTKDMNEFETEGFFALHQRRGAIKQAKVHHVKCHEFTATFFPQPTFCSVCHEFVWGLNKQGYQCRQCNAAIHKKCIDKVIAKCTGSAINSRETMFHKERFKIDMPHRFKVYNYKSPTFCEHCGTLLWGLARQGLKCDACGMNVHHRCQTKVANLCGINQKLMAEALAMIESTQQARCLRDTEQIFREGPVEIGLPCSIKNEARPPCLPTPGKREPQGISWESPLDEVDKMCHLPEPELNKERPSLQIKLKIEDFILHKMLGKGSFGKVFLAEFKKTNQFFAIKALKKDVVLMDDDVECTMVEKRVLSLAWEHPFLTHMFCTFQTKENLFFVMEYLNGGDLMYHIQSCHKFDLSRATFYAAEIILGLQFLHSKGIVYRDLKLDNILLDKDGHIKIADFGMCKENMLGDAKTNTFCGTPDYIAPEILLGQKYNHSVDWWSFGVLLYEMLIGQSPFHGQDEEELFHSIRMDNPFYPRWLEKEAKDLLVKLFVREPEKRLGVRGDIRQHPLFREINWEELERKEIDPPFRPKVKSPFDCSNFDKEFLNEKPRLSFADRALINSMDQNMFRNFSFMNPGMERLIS

B1: GST-NR2F6 fusion protein, wild-type, full-length (purified recombinant) (other)
chain: MAMVTGGWGGPGGDTNGVDKAGGYPRAAEDDSASPPGAASDAEPGDEERPGLQVDCVVCGDKSSGKHYGVFTCEGCKSFFKRSIRRNLSYTCRSNRDCQIDQHHRNQCQYCRLKKCFRVGMRKEAVQRGRIPHSLPGAVAASSGSPPGSALAAVASGGDLFPGQPVSELIAQLLRAEPYPAAAGRFGAGGGAAGAVLGIDNVCELAARLLFSTVEWARHAPFFPELPVADQVALLRLSWSELFVLNAAQAALPLHTAPLLAAAGLHAAPMAAERAVAFMDQVRAFQEQVDKLGRLQVDSAEYGCLKAIALFTPDACGLSDPAHVESLQEKAQVALTEYVRAQYPSQPQRFGRLLLRLPALRAVPASLISQLFFMRLVGKTPIETLIRDMLLSGSTFNWPYGSGQ
notes: GST is placed at the N-terminus from the name 'GST-NR2F6' only; also called recombinant NR2F6; not shown: glutathione S-transferase (GST) fusion tag
- binding result [1]: binds
- binding result [2]: binds
